Target: CA-FN domains of human RPTPζ (amino acid residues 34-410) fused to human IgG1 Fc, purified (human, UniProt P23471 34-410)
Assay: AlphaScreen competition with biotinylated TNC(Fg)

B1: Fg domain of human tenascin-C (amino acid residues 1975-2201) (domain or fragment)
chain: GLLYPFPKDCSQAMLNGDTTSGLYTIYLNGDKAEALEVFCDMTSDGGGWIVFLRRKNGRENFYQNWKAYAAGFGDRREEFWLGLDNLNKITAQGQYELRVDLRDHGETAFAVYDKFSVGDAKTRYKLKVEGYSGTAGDSMAYHNGRSFSTFDKDTDSAITNCALSYKGAFWYRNCHRVNLMGRYGDNNHSQGVNWFHWKGHEHSIQFAEMKLRPSNFRNLEGRRKRA
IC50: 43 nM

B2: Fg domain of human tenascin-R (amino acid residues 1129-1358) (domain or fragment)
chain: GRVFPHPQDCAQHLMNGDTLSGVYPIFLNGELSQKLQVYCDMTTDGGGWIVFQRRQNGQTDFFRKWADYRVGFGNVEDEFWLGLDNIHRITSQGRYELRVDMRDGQEAAFASYDRFSVEDSRNLYKLRIGSYNGTAGDSLSYHQGRPFSTEDRDNDVAVTNCAMSYKGAWWYKNCHRTNLNGKYGESRHSQGINWYHWKGHEFSIPFVEMKMRPYNHRLMAGRKRQSLQF
IC50: 47 nM

Reference: publication PMC10371798 (2023)
